The record followed here is patent US20120095193A1 (published 2012).

Numbering of substitutions follows the chain as printed.

Broadly, the koff is the rate constant with which the complex falls apart. Read a high koff as a short-lived complex. As a reminder, the kon is the rate constant with which the complex forms.

The target in test [1] is T1, human ADAMTS5 (human, UniProt Q9UNA0 262-622, limits assumed).
T1 construct: Octet and ELISA used 'recombinant human ADAMTS5'; also called recombinant human ADAMTS5; ADAMTS5 (R&D Systems 2198-AD)
T1 sequence: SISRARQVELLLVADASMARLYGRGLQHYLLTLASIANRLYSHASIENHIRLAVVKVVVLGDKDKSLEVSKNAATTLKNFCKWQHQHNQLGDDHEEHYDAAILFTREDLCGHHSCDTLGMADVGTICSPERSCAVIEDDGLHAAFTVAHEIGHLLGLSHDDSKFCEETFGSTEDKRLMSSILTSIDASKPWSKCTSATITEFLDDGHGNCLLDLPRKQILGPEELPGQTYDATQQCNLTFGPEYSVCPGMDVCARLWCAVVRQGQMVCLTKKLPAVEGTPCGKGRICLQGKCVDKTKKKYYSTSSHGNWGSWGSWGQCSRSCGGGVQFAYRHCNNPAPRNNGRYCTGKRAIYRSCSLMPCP
The experiment in a line: Biacore, mAb down, no avidity. (Surface plasmon resonance follows binding to a sensor surface in real time, without labels.)

Test [2] has as its target T1, human ADAMTS5. The experiment in a line: Octet QK, antigen down, incl avidity.
For test [3], the target named is T1, human ADAMTS5. Description: Biacore, mAb from culture supernatant captured on anti-human IgG, ADAMTS5 (R&D 2198-AD) at 64 nM, 1:1 fit. As for the experimental part: Anti-human IgG (Biacore™, BR-1008-39) was immobilized on a CM5 chip by primary amine coupling. This surface was then used to capture the humanized antibodies, ADAMTS5 (R&D Systems 2198-AD) was then passed over the captured antibody at a single concentration of 64 nM, regeneration was carried out using 100 mM phosphoric acid followed by 3M MgCl₂. The binding curves were double referenced with buffer injection (i.e. 0 nM) and the data was fitted to the T100 analysis software using the 1:1 model. The run was carried out at 25° C., using HBS-EP as the running buffer. All antibodies were captured from tissue culture supernatants unless specified.

The target in test [4] is T1, human ADAMTS5. The experiment in a line: cell-based or functional assay.
Test [5] addresses T1, human ADAMTS5. The experiment in a line: Octet QK, purified murine mAb.
The target in test [6] is Human MMP3 (human, UniProt P08254 18-477, limits assumed). Description: celTRF and Octet QK cross-reactivity. (In general: Biolayer interferometry detects binding as a change in optical thickness at a sensor tip.)
Human MMP3, sequence (P08254 18-477 limits assumed): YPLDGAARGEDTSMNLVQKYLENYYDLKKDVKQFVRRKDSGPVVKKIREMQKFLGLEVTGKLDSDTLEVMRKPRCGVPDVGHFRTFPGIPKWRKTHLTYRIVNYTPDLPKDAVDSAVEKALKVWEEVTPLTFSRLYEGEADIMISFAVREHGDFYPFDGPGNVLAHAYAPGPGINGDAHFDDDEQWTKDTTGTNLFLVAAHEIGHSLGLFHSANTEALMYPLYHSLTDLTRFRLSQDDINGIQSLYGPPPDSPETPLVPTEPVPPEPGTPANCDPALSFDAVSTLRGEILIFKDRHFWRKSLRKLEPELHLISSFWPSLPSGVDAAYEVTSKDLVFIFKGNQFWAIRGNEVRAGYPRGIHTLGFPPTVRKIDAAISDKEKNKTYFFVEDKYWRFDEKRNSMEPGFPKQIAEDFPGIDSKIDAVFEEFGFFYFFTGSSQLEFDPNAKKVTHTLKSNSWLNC
Test [7] concerns the target Human MMP9 (human, UniProt P14780 20-707, limits assumed). The experiment in a line: celTRF and Octet QK cross-reactivity.
Test [8] concerns the target Human MMP13 (human, UniProt P45452 20-471, limits assumed). The experiment in a line: celTRF and Octet QK cross-reactivity.
In test [9] the target is T2, Human ADAMTS1 (human, UniProt Q9UHI8 253-967, limits assumed).
T2 sequence (looked up): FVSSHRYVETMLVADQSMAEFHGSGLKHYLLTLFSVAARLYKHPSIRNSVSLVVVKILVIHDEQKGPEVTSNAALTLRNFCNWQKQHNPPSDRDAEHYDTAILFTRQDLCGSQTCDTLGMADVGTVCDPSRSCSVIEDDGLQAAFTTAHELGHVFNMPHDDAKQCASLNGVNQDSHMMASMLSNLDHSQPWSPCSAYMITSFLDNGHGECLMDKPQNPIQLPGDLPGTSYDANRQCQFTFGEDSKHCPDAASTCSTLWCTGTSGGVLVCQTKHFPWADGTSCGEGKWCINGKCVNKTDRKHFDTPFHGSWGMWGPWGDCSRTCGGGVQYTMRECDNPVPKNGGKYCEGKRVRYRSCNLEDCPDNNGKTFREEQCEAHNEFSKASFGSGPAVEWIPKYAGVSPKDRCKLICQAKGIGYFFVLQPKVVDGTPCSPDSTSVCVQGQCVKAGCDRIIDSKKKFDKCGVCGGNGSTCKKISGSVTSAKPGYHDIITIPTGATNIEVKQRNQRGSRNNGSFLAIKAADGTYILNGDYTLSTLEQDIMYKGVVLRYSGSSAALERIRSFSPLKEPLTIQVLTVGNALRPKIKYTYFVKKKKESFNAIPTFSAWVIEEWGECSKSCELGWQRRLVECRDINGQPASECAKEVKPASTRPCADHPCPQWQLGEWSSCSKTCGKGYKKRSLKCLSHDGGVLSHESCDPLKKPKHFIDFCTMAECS
Description: celTRF and Octet QK cross-reactivity.

Test [10] has as its target T3, Human ADAMTS4 (human, UniProt O75173 213-685, limits assumed).
T3 construct: also called aggrecanase-1
T3 sequence: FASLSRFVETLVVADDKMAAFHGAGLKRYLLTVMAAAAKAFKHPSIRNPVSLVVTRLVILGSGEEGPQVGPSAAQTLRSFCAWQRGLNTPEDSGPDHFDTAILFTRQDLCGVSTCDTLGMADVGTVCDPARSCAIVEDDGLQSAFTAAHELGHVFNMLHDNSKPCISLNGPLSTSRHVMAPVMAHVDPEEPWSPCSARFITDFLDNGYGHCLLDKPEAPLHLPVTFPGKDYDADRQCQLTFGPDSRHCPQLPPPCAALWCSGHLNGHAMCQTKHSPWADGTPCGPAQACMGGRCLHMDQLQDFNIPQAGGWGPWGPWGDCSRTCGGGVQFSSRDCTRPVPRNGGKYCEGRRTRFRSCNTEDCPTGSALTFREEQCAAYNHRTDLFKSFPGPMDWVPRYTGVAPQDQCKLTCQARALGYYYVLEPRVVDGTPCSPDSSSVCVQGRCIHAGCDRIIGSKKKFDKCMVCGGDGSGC
Description: celTRF and Octet QK cross-reactivity.

In test [11] the target is T4, Human ADAMTS13 (human, UniProt Q76LX8 75-685, limits assumed).
T4 sequence (looked up): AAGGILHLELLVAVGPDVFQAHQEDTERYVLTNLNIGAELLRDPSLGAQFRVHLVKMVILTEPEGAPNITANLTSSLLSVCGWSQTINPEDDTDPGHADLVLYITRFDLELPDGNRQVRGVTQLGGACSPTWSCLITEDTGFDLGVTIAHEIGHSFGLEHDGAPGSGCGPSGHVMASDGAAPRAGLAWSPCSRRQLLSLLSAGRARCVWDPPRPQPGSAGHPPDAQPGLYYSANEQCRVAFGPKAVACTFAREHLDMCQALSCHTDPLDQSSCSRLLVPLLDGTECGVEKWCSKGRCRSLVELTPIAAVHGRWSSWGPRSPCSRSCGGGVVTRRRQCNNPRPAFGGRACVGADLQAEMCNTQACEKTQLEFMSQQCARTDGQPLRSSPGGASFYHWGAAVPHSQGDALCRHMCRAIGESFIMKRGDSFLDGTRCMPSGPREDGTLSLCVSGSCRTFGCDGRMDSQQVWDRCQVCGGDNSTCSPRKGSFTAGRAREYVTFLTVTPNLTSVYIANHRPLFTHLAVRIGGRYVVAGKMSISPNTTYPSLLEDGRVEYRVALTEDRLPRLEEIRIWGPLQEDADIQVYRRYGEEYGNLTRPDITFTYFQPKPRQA
Description: celTRF and Octet QK cross-reactivity.

Test [12] addresses T5, Human MMP1 (human, UniProt P03956 20-469, limits assumed).
T5 sequence (looked up): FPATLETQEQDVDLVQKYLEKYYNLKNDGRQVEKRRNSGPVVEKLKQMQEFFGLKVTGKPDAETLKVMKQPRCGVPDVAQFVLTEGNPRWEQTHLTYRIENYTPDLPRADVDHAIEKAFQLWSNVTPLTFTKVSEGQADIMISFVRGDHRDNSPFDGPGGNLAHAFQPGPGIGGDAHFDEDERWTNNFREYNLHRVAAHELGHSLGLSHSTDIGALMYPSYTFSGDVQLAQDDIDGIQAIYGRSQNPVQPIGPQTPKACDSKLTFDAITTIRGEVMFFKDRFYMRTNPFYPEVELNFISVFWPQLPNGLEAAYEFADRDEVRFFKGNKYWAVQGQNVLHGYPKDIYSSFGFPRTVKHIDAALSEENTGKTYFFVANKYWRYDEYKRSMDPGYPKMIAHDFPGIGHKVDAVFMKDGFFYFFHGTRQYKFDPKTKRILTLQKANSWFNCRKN
The experiment in a line: celTRF and Octet QK cross-reactivity.

Human MMP9, sequence (P14780 20-707 limits assumed): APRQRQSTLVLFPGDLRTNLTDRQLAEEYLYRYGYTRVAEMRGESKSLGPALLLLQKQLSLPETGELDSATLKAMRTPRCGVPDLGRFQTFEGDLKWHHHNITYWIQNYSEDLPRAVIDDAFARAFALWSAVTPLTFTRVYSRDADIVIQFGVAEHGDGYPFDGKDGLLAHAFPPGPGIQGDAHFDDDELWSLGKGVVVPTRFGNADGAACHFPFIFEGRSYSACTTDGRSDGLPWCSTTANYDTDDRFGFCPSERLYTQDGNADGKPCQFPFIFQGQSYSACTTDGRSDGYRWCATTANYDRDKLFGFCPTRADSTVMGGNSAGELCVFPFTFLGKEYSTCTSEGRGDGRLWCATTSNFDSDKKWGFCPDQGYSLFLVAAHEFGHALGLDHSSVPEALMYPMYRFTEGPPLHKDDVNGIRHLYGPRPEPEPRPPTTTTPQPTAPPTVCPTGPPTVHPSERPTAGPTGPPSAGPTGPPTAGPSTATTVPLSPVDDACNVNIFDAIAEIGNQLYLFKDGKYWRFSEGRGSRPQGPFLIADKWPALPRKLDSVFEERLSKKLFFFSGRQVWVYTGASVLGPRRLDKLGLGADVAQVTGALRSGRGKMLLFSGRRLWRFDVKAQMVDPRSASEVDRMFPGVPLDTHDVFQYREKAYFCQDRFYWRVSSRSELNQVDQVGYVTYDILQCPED

B1: BPC1634 (antibody, human IgG1, kappa, V domains shown)
VH: EVQLVESGGGLVQPGGSLRLSCAASGFTFSDAWMDWVRQAPGKGLEWVAEIRNKANNHARHYAESVKGRFTISRDNAKNSLYLQMNSLRAEDTAVYYCARTYYYGSSYGYCDVWGQGTLVTVSS
VL: DIQMTQSPSSLSASVGDRVTITCRTSENIYSYLAWYQQKPGKAPKLLIYNAKTLAEGVPSRFSGSGSGTDFTLTISSLQPEDFATYYCQHHYGTPWTFGQGTKLEIKR
notes: Humanized, human gamma 1 / kappa; also called 7B4 H0L0; Humanized 7B4.1E11 H0L0
Take B1: the Kd in test [1] is 0.869 nM; in [2] it was 0.205 nM; in [3], 0.869 nM. In test [3], this molecule showed a dissociation rate constant (koff) of 0.000481 s⁻¹. Also, in test [3], the association rate constant (kon) was 554000 M⁻¹ s⁻¹.

B2: BPC1653 (antibody, human IgG1, kappa, V domains shown)
VH: B1 VH with F29S, L81V, A99T
VL: B1 VL with K45Q, I48V
notes: Humanized, human gamma 1 / kappa; also called 7B4 H5L2
On to B2, for which, in test [3], the Kd is 1.16 nM, the koff came out at 0.0026 s⁻¹ and the on-rate constant (kon) was 2.24e+06 M⁻¹ s⁻¹.

B3: BPC1652 (antibody, human IgG1, kappa, V domains shown)
VH: B1 VH with F29S, N76D, A99T
VL: B1 VL with K45Q, I48V
notes: Humanized, human gamma 1 / kappa; also called 7B4 H4L2
In test [3], B3 gave a Kd of 1.08 nM, a koff of 0.00212 s⁻¹ and a kon of 1.96e+06 M⁻¹ s⁻¹.

B4: BPC1647 (antibody, human IgG1, kappa, V domains shown)
VH: B1 VH with F29S, N76D, L81V, A99T
VL: B1 VL with I48V
notes: Humanized, human gamma 1 / kappa; also called 7B4 H6L1
In [3], B4 registered a Kd of 0.978 nM, an off-rate (koff) of 0.00145 s⁻¹ and a kon of 1.48e+06 M⁻¹ s⁻¹.

B5: BPC1651 (antibody, human IgG1, kappa, V domains shown)
VH: B1 VH with F29S, A99T
VL: B1 VL with K45Q, I48V
notes: Humanized, human gamma 1 / kappa; also called 7B4 H3L2
Take B5: in test [3], the Kd stood at 1.19 nM, the off-rate constant (koff) stood at 0.00315 s⁻¹ and the on-rate (kon) came to 2.65e+06 M⁻¹ s⁻¹.

B6: BPC1646 (antibody, human IgG1, kappa, V domains shown)
VH: B1 VH with F29S, L81V, A99T
VL: B1 VL with I48V
notes: Humanized, human gamma 1 / kappa; also called 7B4 H5L1
In test [3], B6 gave a Kd of 1.03 nM, a dissociation rate constant (koff) of 0.00184 s⁻¹ and a kon of 1.79e+06 M⁻¹ s⁻¹.

B7: BPC1654 (antibody, human IgG1, kappa, V domains shown)
VH: B1 VH with F29S, N76D, L81V, A99T
VL: B1 VL with K45Q, I48V
notes: Humanized, human gamma 1 / kappa; also called 7B4 H6L2
As to B7, in test [3], the Kd was 1.09 nM, the dissociation rate constant (koff) was 0.00114 s⁻¹ and the on-rate (kon) was 1.04e+06 M⁻¹ s⁻¹.

B8: BPC1648 (antibody, human IgG1, kappa, V domains shown)
VH: B1 VH
VL: B1 VL with K45Q, I48V
notes: Humanized, human gamma 1 / kappa; also called 7B4 H0L2
With B8, in test [3], the Kd worked out at 1.21 nM, the koff worked out at 0.000951 s⁻¹ and the kon was found to be 788000 M⁻¹ s⁻¹.

B9: BPC1645 (antibody, human IgG1, kappa, V domains shown)
VH: B1 VH with F29S, N76D, A99T
VL: B1 VL with I48V
notes: Humanized, human gamma 1 / kappa; also called 7B4 H4L1
In [3], B9 registered a Kd of 1.04 nM, an off-rate constant (koff) of 0.00116 s⁻¹ and an on-rate constant (kon) of 1.12e+06 M⁻¹ s⁻¹.

B10: BPC1649 (antibody, human IgG1, kappa, V domains shown)
VH: B1 VH with A99T
VL: B1 VL with K45Q, I48V
notes: Humanized, human gamma 1 / kappa; also called 7B4 H1L2
In test [3], B10 returned a Kd of 1.27 nM, an off-rate (koff) of 0.0013 s⁻¹ and a kon of 1.02e+06 M⁻¹ s⁻¹.

B11: BPC1650 (antibody, human IgG1, kappa, V domains shown)
VH: B1 VH with F29S
VL: B1 VL with K45Q, I48V
notes: Humanized, human gamma 1 / kappa; also called 7B4 H2L2
For B11, in [3], the Kd turned out to be 1.09 nM, the koff was 0.00343 s⁻¹ and the kon amounted to 3.14e+06 M⁻¹ s⁻¹.

B12: 2D3.1D4 (antibody, V domains shown)
VH: EVKLEESGGGLVQPGGSMKLSCAASGITFSDAWMDWVRQSPEKGLEWVADIRNTANNHATFYAESVKGRFTISRDDSKSTVYLQMNTLRPEDTGIYYCTSPFAYWGQGTLVTVSA
VL: DIVMTQSQKFMSTTVGDRVSITCKASQNVGTAVVWFQQKPGQSPKLLIYSASNRYTRVPDRFTGSGSGTDFTLTISNVQSEDLADYFCQQYVNYPFTFGSGTKLEIKR
notes: Murine monoclonal antibody from a hybridoma
In the case of B12, the “Aggrecan Substrate Cleavage Neutralization IC50” value in test [4] stood at 0.031 nM. This molecule also showed a Kd in test [5] of 0.0862 nM. Besides, the binding result in [6], in test [7], in test [8], in [9], in test [10] and in test [11] was “no binding” in each case. For the same molecule, the binding result in [12] is reported as “no binding”.
